US11732043 (MERUS N V, dated 2023)
Read-outs that look alike come from different tables or passages of the source.

T1: LAG-3 overexpressed on Jurkat/NFAT-RE reporter cells (Promega) (UniProt P18627 23-525)
T1 sequence (looked up): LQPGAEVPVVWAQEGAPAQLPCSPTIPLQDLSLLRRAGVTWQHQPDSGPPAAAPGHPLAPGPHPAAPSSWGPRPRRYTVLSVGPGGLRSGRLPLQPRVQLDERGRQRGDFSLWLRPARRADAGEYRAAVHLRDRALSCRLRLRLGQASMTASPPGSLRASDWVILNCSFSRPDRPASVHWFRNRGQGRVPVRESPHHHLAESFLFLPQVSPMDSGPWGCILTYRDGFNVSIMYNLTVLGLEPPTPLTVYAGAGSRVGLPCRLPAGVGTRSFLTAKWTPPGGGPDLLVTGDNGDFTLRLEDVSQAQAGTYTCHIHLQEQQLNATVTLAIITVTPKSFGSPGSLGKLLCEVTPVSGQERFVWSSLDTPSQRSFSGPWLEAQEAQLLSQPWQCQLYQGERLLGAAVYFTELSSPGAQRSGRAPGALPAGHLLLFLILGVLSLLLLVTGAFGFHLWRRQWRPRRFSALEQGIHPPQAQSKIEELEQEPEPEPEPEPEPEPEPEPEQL

T2: human LAG-3 (huLAG-3), full length, expressed on the cell surface (human, UniProt P18627 23-525)
T2 sequence: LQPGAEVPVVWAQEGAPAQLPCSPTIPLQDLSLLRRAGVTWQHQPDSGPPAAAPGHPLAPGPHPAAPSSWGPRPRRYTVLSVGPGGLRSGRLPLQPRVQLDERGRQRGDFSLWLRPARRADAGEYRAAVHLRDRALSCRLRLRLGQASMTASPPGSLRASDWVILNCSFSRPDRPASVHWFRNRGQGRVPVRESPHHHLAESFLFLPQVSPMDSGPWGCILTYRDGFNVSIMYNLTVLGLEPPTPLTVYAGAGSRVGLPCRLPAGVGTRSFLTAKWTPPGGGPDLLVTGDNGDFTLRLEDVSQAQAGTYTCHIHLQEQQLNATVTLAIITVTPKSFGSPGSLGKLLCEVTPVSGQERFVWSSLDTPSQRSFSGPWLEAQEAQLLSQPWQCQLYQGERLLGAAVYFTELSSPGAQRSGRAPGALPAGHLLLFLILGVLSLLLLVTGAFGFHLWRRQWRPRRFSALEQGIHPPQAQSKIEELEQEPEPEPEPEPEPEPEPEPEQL


What was measured:
[1] = target: T1, LAG-3 overexpressed on Jurkat/NFAT-RE …; assay: cell-based or functional assay
[2] = target: T2, human LAG-3 (huLAG-3), full length, …
[3] = target: T2, human LAG-3 (huLAG-3), full length, …; assay: FACS on HEK293T cells with mouse/human LAG-3 hybrid constructs, bivalent IgG; bin = human domain bound
[4] = target: T2, human LAG-3 (huLAG-3), full length, …
[5] = target: T2, human LAG-3 (huLAG-3), full length, …; remark: listed apart in the source

Binder	LAG-3 blockade reporter assay (Jurkat LAG-3 reporter cells with Raji MHCII cells), activity as bivalent IgG, AUC [1]	EC50 [2] [µg/mL]	other results
bivalent LAG-3 IgG with MF7167 variable domains (antibody, V domains shown) VH: EVQLVESGGGLVQPGGSLRLSCAASGFTFSSYAMNWVRQAPGKGLEWVSTISGSGVSTYYADSVKGRFTISRDNSKNTLYLQMNTLRAEDTAVYYCAKDRGYDYSGSYHNWFDPWGQGTLVTVSS VL: not shown	-1.33 % of control		
MG7524 (monovalent) (bispecific antibody, V domains shown) VH 1: QVQLVQSGAEVKKPGASVKVSCKASGYTFTSYGISWVRQAPGQGLEWMGWISAYSGNTNYAQKLQGRVTMTTDTSTSTAYMELRSLRSDDTAVYYCARGSILAAQMWGDIWGQGTLVTVSS VH 2: not shown VL: not shown		4.2	
bivalent LAG-3 IgG with MF7106 variable domains (antibody, V domains shown) VH: QVQLVQSGAEVKKPGSSVKVSCKASGGTFSKYVVSWVRQAPGQGFDWMGGIIPMFGTANYAQMFQGRVTITADKSTSTVNMELSSLRSEDTAVYYCVRDKAVAGLYYFDSWGQGTLVTVSS VL: not shown	16.3 % of control		
MG7106 (monovalent) (bispecific antibody) VH 1: QVQLVQSGAEVKKPGSSVKVSCKASGGTFSKYVVSWVRQAPGQGFDWMGGIIPMFGTANYAQMFQGRVTITADKSTSTVNMELSSLRSEDTAVYYCVRDKAVAGLYYFDSWGQGTLVTVSS VH 2: not shown light: not shown		26.5	
MG7139 (monovalent) (bispecific antibody, V domains shown) VH 1: QVQLVQSGAEVKKPGSSVKVSCKASGGTFSNFAFSWVRQAPGQGLEWMGGIIPMFDTAKYAQKFQGRVTIIADKSTNTAYMDLNSLRSEDTAVYYCVRDRAIGTLYYFDYWGQGTLVTVSS VH 2: not shown VL: not shown		5.71	
MG7144 (monovalent) (bispecific antibody, V domains shown) VH 1: QVQLVQSGAEVRKPGSSVMVSCKASGGTFSTYAINWLRQAPGQGLEWMGGIIPIFGTPYYGQRFQGRVTITADKSTNTVFMELSSLRSEDTAIYYCARDRDSGGLYYFDSWGQGTLVTVSS VH 2: not shown VL: not shown		10.2	
bivalent LAG-3 IgG with MF7515 variable domains (antibody, V domains shown, Bivalent monospecific IgG; copies: 2 + 2) VH: QVQLVQSGAEVKKPGASVKVSCKASGYTFTSYGISWVRQAPGQGLEWMGWISAYSGNTNYAQKLQGRVTMTTDTSTSTAYMELRSLRSDDTAVYYCARRPGPALGDLDSWGQGTLVTVSS VL: not shown			binding result [3]: binds
bivalent LAG-3 IgG with MF7146 variable domains (antibody, V domains shown, Bivalent monospecific IgG; copies: 2 + 2) VH: EVQLVQSGAEVKKPGSSVKVSCKASGGTFNNYFITWVRQAPGQGLEWMGGIIPSFGTGNYAQKFQGRVAITADKSTNTAYMELSSLRSEDTAIYYCVRDREVGAIYYFDYWGQGTMVTVSS VL: not shown			binding result [3]: binds
bivalent LAG-3 IgG with MF7118 variable domains (antibody, V domains shown) VH: EVQLVESGGGLVQPGGSLRLSCAASGFTFSSYAMSWVRQAPGKGLEWVSSISGGGVSTFYADSVKGRFTISRDNSKNTLYLQMNSLRAEDTAVYYCAIVPAAATPSGTYYWIFDLWGRGTLVTVSS VL: not shown	2.04 % of control		
MG7133 (monovalent) (bispecific antibody, V domains shown) VH 1: EVQLVQSGAEVKKPGSSVKVSCKASGGTFSSHAISWVRQVPGQGLEWMGGIIPLFDTAKNAQKFQGRVTITADKSTSTAYMELSSLRSEDTAVYYCARDRETGTLYYFDYWGQGTLVTVSS VH 2: not shown VL: not shown		11.2	
MG7137 (monovalent) (bispecific antibody) VH 1: QVQLVQSGAEVKRPGASVKVSCKVSGYTLTELSMHWVRQAPGKGLEWMGGSDPEHGETVDAQKFQGRVTMTEDTSTDTAYMELSSLRSEDTAVYYCTTGGTYYYGSGSYYTLDFWGQGTLVTVSS VH 2: not shown light: not shown		1.68	
bivalent LAG-3 IgG with MF7096 variable domains (antibody, V domains shown) VH: QVQLQESGPGLVRPSETLSLTCTVSGGSISSYSWSWIRQPPGKGLEWIGYIDYSGSTNYNPSLKSRVTISVDTSKTQFSLKLSSVSAADTAVYYCAKDLLYKWNYVEGFDIWGQGTTVTVSS VL: not shown	35.7 % of control		
bivalent LAG-3 IgG with MF7097 variable domains (antibody, V domains shown) VH: QVQLQESGPGLVKPSETLSLTCTVSGGSISSYSWSWIRQPPGKGLEWIGYIDYSGTTNFNPSLKSRVTISVDTSKTQFSLKLSSVSAADTAVYYCAKDLLYKWNYVEGFDIWGQGTMVTVSS VL: not shown	21.4 % of control		
bivalent LAG-3 IgG with MF7100 variable domains (antibody, V domains shown) VH: EVQLVESGGGVVQPGRSLRLSCAASGFTFSSYDTHWVRQAPGKGLEWVAVISYDGSNKYYADSVKGRFTISRDNSKNTLYLQMNSLRAEDTAMYYCARERGWDVFDIWGQGTLVTVSS VL: not shown	39.8 % of control		
bivalent LAG-3 IgG with MF7185 variable domains (antibody, V domains shown) VH: QVQLVQSGAEVKKPGSSVKVSCKTSGGTFSNYAFSWVRQAPGQGLEWMGGIIPIFGSTNYAQSFQGRVTITADKSTSTAYMELSSLRSEDTAVYYCARDREMGTLYFFDQWGQGTTVTVSS VL: not shown	20.9 % of control		
MG7185 (monovalent) (bispecific antibody, V domains shown) VH 1: QVQLVQSGAEVKKPGSSVKVSCKTSGGTFSNYAFSWVRQAPGQGLEWMGGIIPIFGSTNYAQSFQGRVTITADKSTSTAYMELSSLRSEDTAVYYCARDREMGTLYFFDQWGQGTTVTVSS VH 2: not shown VL: not shown		4.49	
bivalent LAG-3 IgG with MF7134 variable domains (antibody, V domains shown) VH: EVQLVQSGSELKKPGASVKVSCKASGYTFTTNALNWVRQAPGQGLEWMGWINTHTGNPTYAQGFIGRFVFSLDTSVSTAYLQIRSLKAEDTAVYYCAREPNWGVYFDYWGQGTLVTVSS VL: not shown	34.3 % of control		
H4sH15482P* (antibody, V domains shown) VH: QVQLVESGGGVVQPGRSLRLSCVASGFTFSSYGMHWVRQAPGKGLEWVAIIWYDGSNKYYADSVKGRFTISRDNSKNTQYLQMNSLRAEDTAVYYCASVATSGDFDYYGMDVWGQGTTVTVSS VL: EIVLTQSPATLSLSPGERTTLSCRASQRISTYLAWYQQKPGQAPRLLIYDASKRATGIPARFSGSGSGTGFTLTISSLEPEDFAVYYCQQRSNWPLTFGGGTKVEIKR			EC50 (read off the curve) [4]: ~0.1 µg/mL
PG7116, bivalent LAG-3 IgG with two MF7116 variable domains (antibody, V domains shown, Bivalent monospecific IgG) VH: EVQLVESGGGVVQPGRSLRLSCAASGFTFSSYGMHWVRQAPGKGLEWVAVISYHGSDKYYADSVKGRFTISRDNSKNTLYLQMNSLRAEDTAVYYCARDGDNWDVFDIWGQGTLVTVSS VL: not shown	57.1 % of control		EC50 (read off the curve) [5]: ~0.1 µg/mL
bivalent LAG-3 IgG with MF7518 variable domains (antibody, V domains shown) VH: QVQLVQSGAEVKKPGASVKVSCKASGYTFTSYGISWVRQAPGQGLEWMGWISAYSGNTNYAQKLQGRVTMTTDTSTSTAYMELRSLRSDDTAVYYCARDGSGWDDFDYWGQGTLVTVSS VL: not shown	64.7 % of control		
bivalent LAG-3 IgG with MF7111 variable domains (antibody, V domains shown) VH: QVQLQESGPGLVKPSETLSLTCTVSDDSISDYYWSWIRQPPGKGLEWIGYIYYSGNTKYNPSLKNRVTISVDTSKSQFSLKLTSVTAADTAVYYCARIPLTGEFDYWAQGTLVTVSS VL: not shown	51.2 % of control		
bivalent LAG-3 IgG with MF7165 variable domains (antibody, V domains shown, Bivalent monospecific IgG; copies: 2 + 2) VH: QVQLVQSGAEVRKPGASVKVSCKVSGYTLTELSIHWVRQAPGKGLEWMGAFDPEDGETIYAQKFQGRVTMTEDTSTDTAYMELSSLRSEDTAVYFCATGGTYYYGSGSYYTLDYWGQGTLVTVSS VL: not shown			binding result [3]: binds
bivalent LAG-3 IgG with MF7137 variable domains (antibody, V domains shown) VH: QVQLVQSGAEVKRPGASVKVSCKVSGYTLTELSMHWVRQAPGKGLEWMGGSDPEHGETVDAQKFQGRVTMTEDTSTDTAYMELSSLRSEDTAVYYCTTGGTYYYGSGSYYTLDFWGQGTLVTVSS VL: not shown	51.2 % of control		
